Reference: IntAct's records for PubMed 32172343

B1: Phospholipid-transporting ATPase VB (Homo sapiens), O94823-1 (parent)
chain: MALSVDSSWHRWQWRVRDGFPHCPSETTPLLSPEKGRQSYNLTQQRVVFPNNSIFHQDWEEVSRRYPGNRTCTTKYTLFTFLPRNLFEQFHRWANLYFLFLVILNWMPSMEVFHREITMLPLAIVLFVIMIKDGMEDFKRHRFDKAINCSNIRIYERKEQTYVQKCWKDVRVGDFIQMKCNEIVPADILLLFSSDPNGICHLETASLDGETNLKQRCVVKGFSQQEVQFEPELFHNTIVCEKPNNHLNKFKGYMEHPDQTRTGFGCESLLLRGCTIRNTEMAVGIVIYAGHETKAMLNNSGPRYKRSKIERRMNIDIFFCIGILILMCLIGAVGHSIWNGTFEEHPPFDVPDANGSFLPSALGGFYMFLTMIILLQVLIPISLYVSIELVKLGQVFFLSNDLDLYDEETDLSIQCRALNIAEDLGQIQYIFSDKTGTLTENKMVFRRCTIMGSEYSHQENAKRLETPKELDSDGEEWTQYQCLSFSARWAQDPATMRSQKGAQPLRRSQSARVPIQGHYRQRSMGHRESSQPPVAFSSSIEKDVTPDKNLLTKVRDAALWLETLSDSRPAKASLSTTSSIADFFLALTICNSVMVSTTTEPRQRVTIKPSSKALGTSLEKIQQLFQKLKLLSLSQSFSSTAPSDTDLGESLGANVATTDSDERDDASVCSGGDSTDDGGYRSSMWDQGDILESGSGTSLEEALEAPATDLARPEFCYEAESPDEAALVHAAHAYSFTLVSRTPEQVTVRLPQGTCLTFSLLCTLGFDSVRKRMSVVVRHPLTGEIVVYTKGADSVIMDLLEDPACVPDINMEKKLRKIRARTQKHLDLYARDGLRTLCIAKKVVSEEDFRRWASFRREAEASLDNRDELLMETAQHLENQLTLLGATGIEDRLQEGVPDTIATLREAGIQLWVLTGDKQETAVNIAHSCRLLNQTDTVYTINTENQETCESILNCALEELKQFRELQKPDRKLFGFRLPSKTPSITSEAVVPEAGLVIDGKTLNAIFQGKLEKKFLELTQYCRSVLCCRSTPLQKSMIVKLVRDKLRVMTLSIGDGANDVSMIQAADIGIGISGQEGMQAVMSSDFAITRFKHLKKLLLVHGHWCYSRLARMVVYYLYKNVCYVNLLFWYQFFCGFSSSTMIDYWQMIFFNLFFTSLPPLVFGVLDKDISAETLLALPELYKSGQNSECYNLSTFWISMVDAFYQSLICFFIPYLAYKGSDIDVFTFGTPINTISLTTILLHQAMEMKTWTIFHGVVLLGSFLMYFLVSLLYNATCVICNSPTNPYWVMEGQLSNPTFYLVCFLTPVVALLPRYFFLSLQGTCGKSLISKAQKIDKLPPDKRNLEIQSWRSRQRPAPVPEVARPTHHPVSSITGQDFSASTPKSSNPPKRKHVEESVLHEQRCGTECMRDDSCSGDSSAQLSSGEHLLGPNRIMAYSRGQTDMCRCSKRSSHRRSQSSLTI
partner: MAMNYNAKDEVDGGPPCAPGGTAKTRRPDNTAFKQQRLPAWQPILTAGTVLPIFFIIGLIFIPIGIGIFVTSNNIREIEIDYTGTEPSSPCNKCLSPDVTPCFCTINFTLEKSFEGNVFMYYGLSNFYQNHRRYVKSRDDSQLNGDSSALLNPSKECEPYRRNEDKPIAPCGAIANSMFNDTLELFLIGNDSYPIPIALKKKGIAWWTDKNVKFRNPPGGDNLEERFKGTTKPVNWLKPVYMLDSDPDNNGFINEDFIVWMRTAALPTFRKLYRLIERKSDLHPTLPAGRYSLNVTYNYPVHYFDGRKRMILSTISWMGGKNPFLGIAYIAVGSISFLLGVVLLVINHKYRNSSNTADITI

Variants of: B1
Conditions: with TMEM30A

| Variant | effect of a mutation on the interaction |
| --- | --- |
| V48L | with no effect |
| E210A | with no effect |
| G671R;N865K | with no effect |
| E993A | with no effect |
| I1038T | with no effect |
